Experimental data taken from publication PMC11247618 (Immunity, 2024).

Biological target: 1b09 HCV E2 ectodomain (E2ecto) (Hepatitis C virus genotype 1b, strain …, strain)
Assay: crystal structure

B1: hcab40 Fab (Fab, V domains shown)
VH: QVQLQQWGAGLLKPSESLSLTCVVYGGSFSGYYWSWIRQPPGKGLEWIGEINPTGSTNYNPSLNSRVTISVDRSKNHLSLKLSSVTAADTAVYFCARFLPPDYDLLTDYFDPPGAFDIWGQGTMVTVSS
VL: DIHMTQSPFSLSASVGDRVTITCRASQSISGWLAWYQQKVGNAPKLLIYKASSLESGVPSRFSGSGSGTEFTLSISSLQPDDFATYYCQQYNSYPFTFGPGTKVDMK
B1: binds.

B2: hcab17 Fab (Fab, V domains shown)
VH: QVQLNQWGAGLLKPSETLSLTCAVYGDAFSGNYWSWIRQPPGKGLQWIGEINHSGNTNYDPSLESRVSISLDTSKNQLSLKLNSVTAADTALYYCARGQRNCSGGNCYSGLWAWGQGTLVTVSS
VL: AIHMTQSPFSLSASVGDRVTITCRASQGIRNDLAWYQHKPGTAPKVLIYAASSLQDGVSSRFSGSGSGTLFTLTISSLQPEDFATYYCLQGYNYPRTFGQGTKVEMK
B2: binds.

B3: hcab64 Fab (Fab, V domains shown)
VH: QVQLVQSGAEIQKPGASVKVSCRASGYTYISTSFHWVRQAPGQGLEWMGVIKTDDGSTSDTQKFQGRLRMTWDTSTSTVYMELSSLRSDDTAVYYCVSPRLGHCRRGRCYETLDWGQGSLVTVSS
VL: EIVLTQSPGTLSLSPGERATLSCRASQSVSSSYLAWYQQKPGQAPRLLVYGASTRATGIPDRFSGSGSGTDFTLTISRLEPEDFAVYYCHQYSSSFWTFGQGTKVEIK
B3: binds.

B4: hcab55 Fab (Fab, V domains shown)
VH: QVQLVQSGAEIKKPGASVKVSCKASGYTFISNYFHWVRQAPGQGLEWMGIINPSSGSTTYGQKFQGRVTLTSDTSASIVYLELSRLRSEDTAVYYCVSPRIAHCRGGRCYETLDWGQGTLVTVSS
VL: EIVLTQSPVSLSLSPGERATLSCRASQSVSSNYLAWYQLKPGRAPRLLIYGASSRAPGIPDRFSGSGSGTDFTLTISRLEPEDFAVYYCQQYGISSWTFGQGTKVEIK
B4: binds.
